Results: patent US5576288A, “Fibroblast growth factor conjugates” (The Salk Institute For Biological Studies, priority 1994, dated 1996)

What was measured:
BHK cells [1] = test: competition of cytotoxicity by preincubation with basic FGF or NGF; format: cell-based, baby hamster; conditions: BHK cells preincubated one hour; basic FGF-SAP 10^-10 M; up to thousand-fold excess; FIG. 4
Description: Basic FGF-SAP was used at a concentration of 10^-10 M basic FGF-AP and C: preincubation with equimolar free of basic FGF; D: 10-fold excess of free basic FGF; E: 100-fold excess of basic FGF; F: 1000-fold excess of basic FGF; G: equimolar incubation with equimolar free NGF; H: 10-fold molar excess; I: 100-fold molar excess, J: […].
Specificity of the cytotoxic agent was examined in competition experiments in an effort to establish that the mitotoxic activity of the conjugate is receptor specific. BHK cells were preincubated for one hour with various levels of basic FGF or nerve growth factor (NGF) prior to treatment of the cells with the cytotoxic agent. […] In contrast, a thousand-fold excess of NGF has no effect.

BHK cells [2] = test: cytotoxic activity on BHK cells (cell count after two days); format: cell-based, baby hamster; conditions: highest dose tested 10^-8 M, FIG. 3
Description: The protein synthesis inhibition activity of the SAP protein was compared to the protein synthesis inhibition activity of the basic FGF-SAP conjugate in in vitro assays of protein synthesis as described in Siehn et al., Blood, 72:756-765 (1988), which is incorporated herein by reference. The cytotoxic activity of the conjugate was tested on baby hamster kidney fibroblasts (ATCC Accession No. CRL 6281). BHK cells were plated in 24 well plates at a concentration of 5000 cells/ml and incubated overnight at 37° C., 5% CO2. The following morning, HEPES-buffered DMEM and F-12 media (1:1) plus 5% FCS was aspirated from the wells and replaced with media alone or with media containing the conjugate, basic FGF or saporin. Two days later, the cells were washed twice, trypsinized and cell number determined with a Coulter Particle Counter (Coulter Electronics, Hialeah, Fla.).

NGF: nerve growth factor used as competition control
effect of preincubation on cytotoxic activity of basic FGF-SAP (BHK cells [1]): no effect

SAP: type-1 ribosome-inactivating protein isolated from the seeds of Saponaria officinalis
toxic effect on BHK cell proliferation (BHK cells [2]): no toxic effect
